Tests used:
CD47-His = test: ELISA: hCD47 His capture, IgG HRP detection
[1] = biological target: mouse LTbR on CHO-K1 cells (mouse) (UniProt P50284); test: flow cytometry on CHO-K1 cells expressing murine LTbR (the sentence names the second value 'for mCD172a(SIRPα)')
[2] = biological target: mouse LTbR on CHO-K1 cells (mouse) (UniProt P50284); test: flow cytometry on CHO-K1 cells expressing murine LTbR
CD155PVR-His [3] = test: ELISA: CD155-His capture, IgG detection
CD155PVR-His [4] = test: ELISA: 'CD115/PVR Capture' as printed (legend: CD155PVR-His), Fc-HRP detection
recombinant CD155 = test: ELISA: CD155/PVR capture, Fc-HRP detection

Chain of mouse LTbR on CHO-K1 cells (mouse) (P50284 31-415): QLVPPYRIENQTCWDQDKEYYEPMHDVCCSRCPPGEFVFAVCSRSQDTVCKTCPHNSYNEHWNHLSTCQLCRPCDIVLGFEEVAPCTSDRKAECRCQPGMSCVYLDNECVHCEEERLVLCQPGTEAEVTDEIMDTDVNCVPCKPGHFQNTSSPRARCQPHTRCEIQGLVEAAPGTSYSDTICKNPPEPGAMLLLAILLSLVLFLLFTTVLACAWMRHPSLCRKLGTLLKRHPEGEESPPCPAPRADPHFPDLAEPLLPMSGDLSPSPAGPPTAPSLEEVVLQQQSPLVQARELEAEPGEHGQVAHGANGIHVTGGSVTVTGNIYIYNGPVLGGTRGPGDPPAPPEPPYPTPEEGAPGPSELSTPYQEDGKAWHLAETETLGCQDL
Chain of CD47-His (Q61735 19-140): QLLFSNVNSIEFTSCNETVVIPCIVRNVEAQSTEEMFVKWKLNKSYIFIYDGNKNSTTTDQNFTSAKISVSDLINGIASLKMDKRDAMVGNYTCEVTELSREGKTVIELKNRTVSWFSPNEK

SIRPa-Fc Std (Fc fusion)
EC50 (read off the curve) (CD47-His): 0.3 nM

murine CD172a(SIRPα)-Fc-LIGHT chimeric protein (from UniProt P97797 32-373) (Fc fusion)
EC50 [1]: 24 nM

murine TIGIT-Fc-LIGHT chimeric protein (from UniProt P86176 29-148) (Fc fusion)
EC50 [2]: 11 nM

TIGIT-Fc Std (Fc fusion)
EC50 (read off the curve) (CD155PVR-His [3]): 0.07 nM

TIGIT Std (receptor)
EC50 (read off the curve) (CD155PVR-His [4]): 10 nM | EC50 (read off the curve) (recombinant CD155): 10 nM
